# According to publication PMC9166738:
# Legend:
# [1] = target: Formate dehydrogenase catalytic subunit Fdh3A with N-terminal Strep-tag (Thermococcus onnurineus NA1); assay: SEC; Strep-tag purified CFOR complex on a calibrated Superdex 200 10/300 GL column in buffer W, 0.5 ml/min, anaerobic; complex formed in cells and co-purified beforehand
# [2] = target: Fdh3B-CodhA fusion protein with (GGGGS)1 linker (Thermococcus onnurineus NA1); assay: as above
stoichiometry N [1],stoichiometry N [2],Substance
1,,Fdh3B-CodhA fusion protein with (GGGGS)1 linker
,2,CO dehydrogenase catalytic subunit CodhB (enzyme)
